The text below walks through data of the Human Domainome abundance scans (Beltran et al. 2025).

The labels stand for the following.
B1: Dynamin-binding protein, residues 242 to 304; numbered along this chain, Q6XZF7 (parent)
chain: EEPGTYGVALYRFQALEPNELDFEVGDKIRILATLEDGWLEGSLKGRTGIFPYRFVKLCPDTR
B2: Retinoic acid receptor beta, residues 85 to 161; numbered along this chain, P10826 (parent)
chain: YKPCFVCQDKSSGYHYGVSACEGCKGFFRRSIQKNMIYTCHRDKNCVINKVTRNRCQYCRLQKCFEVGMSKESVRND

± gives the uncertainty stated by the source.

In one series the parent is B1. Briefly: abundance fitness (aPCA) (normalised: wild type 0, dead -1); higher = more abundant; growth selection in yeast, the domain comes from the species named. The conditions noted are these: Homo sapiens.
As to EETGTYGVALYRFQALEPNELDFEVGDKIRILATLEDGWLEGSLKGRTGIFPYRFVKLCPDTR, the abundance fitness was 0.126 ± 0.075.
Turning to EEAGTYGVALYRFQALEPNELDFEVGDKIRILATLEDGWLEGSLKGRTGIFPYRFVKLCPDTR, the abundance fitness was -0.337 ± 0.1.
As for EEPGTYGVALYRFYALEPNELDFEVGDKIRILATLEDGWLEGSLKGRTGIFPYRFVKLCPDTR, the abundance fitness is -0.172 ± 0.066.
For the variant EEPGTYGVALYRFQALEPNELDFEVGDKIRILATLEDGWLEGSLKGRTGIFPYRFVRLCPDTR, the abundance fitness is -0.041 ± 0.047.
For the variant EEPGTYGVALYRFQALEPNELDFEVGDKIRILATLEDGWLEGFLKGRTGIFPYRFVKLCPDTR, the abundance fitness is -0.226 ± 0.068.
In the case of EEPGTYGVLLYRFQALEPNELDFEVGDKIRILATLEDGWLEGSLKGRTGIFPYRFVKLCPDTR, the abundance fitness is -0.662 ± 0.1.
Still for that read-out and setting: under EEPGTYGVYLYRFQALEPNELDFEVGDKIRILATLEDGWLEGSLKGRTGIFPYRFVKLCPDTR stands -0.578 ± 0.078; under EEPGTYGVALYRFQALEPNELDFEVGDKIRILATLEDGWPEGSLKGRTGIFPYRFVKLCPDTR, -0.642 ± 0.12; under EEPGTYGVALYRFQALEPNELDFEVGDKIRILATLEEGWLEGSLKGRTGIFPYRFVKLCPDTR, -0.407 ± 0.16.
Take EEPGTYGVALYRFQALEPNELDFEVGDKSRILATLEDGWLEGSLKGRTGIFPYRFVKLCPDTR: the abundance fitness was -0.776 ± 0.075.
For EEPGTYGVALYRFQALEPNELDFEVGDKERILATLEDGWLEGSLKGRTGIFPYRFVKLCPDTR, the abundance fitness was -0.721 ± 0.22.
For EEPGTYGVALYRFQALEPNELDFEVGDKIRILATLEDGWLEGSLKGRTGIFAYRFVKLCPDTR, the abundance fitness was -0.68 ± 0.097.
On to EEPGTYGVALYRFQALEPNELDFEVGDKIRILATLEDGWLEGSLKGRTGIFPYRFVKRCPDTR, for which the abundance fitness was -0.12 ± 0.056.
For EEPGTYGVALYRFQALEPNELDFEVGDKIRILATLEDGWLEGSLKGRTGIFPYRFVKECPDTR, the abundance fitness is -0.708 ± 0.17.
Consider EEPGTYGVALYRFQALEPNELDFEVGDKIRILATLPDGWLEGSLKGRTGIFPYRFVKLCPDTR, for which the abundance fitness was -0.171 ± 0.099.
Same read-out and setting: to EEPGTYGVALYRFQALEPNELDFECGDKIRILATLEDGWLEGSLKGRTGIFPYRFVKLCPDTR belongs -0.328 ± 0.06.
Regarding EEPGTYGVALYRFQALEPNELDFEVGDKIRILQTLEDGWLEGSLKGRTGIFPYRFVKLCPDTR, the abundance fitness was -0.188 ± 0.14.
On the same count and under the same terms, to EEPGTYGVALYRFQALEPNELDFEVGDKIRILSTLEDGWLEGSLKGRTGIFPYRFVKLCPDTR belongs 0.043 ± 0.054; to EEPGTYGVALYRFQALEPNELDFEVGDKIRILATLEDGWLEGSLKGRTGIFPYRFVKLCADTR, -0.059 ± 0.074; to EEPGTYGVALYRFQALEPNELDFEVGDKIRILAMLEDGWLEGSLKGRTGIFPYRFVKLCPDTR, -0.086 ± 0.12.
The same measure, in the same setting: under EEPGTYGVALYRFQALEPNELDFEVGDKIRILATLEDGWLEGSLKGRTGIFPYRFNKLCPDTR stands -0.711 ± 0.11.

The variants in another series derive from B2. Described as above. The conditions noted are these: Homo sapiens.
On to YKPCFVCQDKSSGYHYGVSACEGCKGFFRRSIQKNMIYTCHRDKNCVINKVTRNRCQYCRLQKCFEVGMSKESVRVD, for which the abundance fitness was 0.047 ± 0.054.
The same measure, in the same setting: to YKPCFVCQDKSSGYHYGVSACEGCKGFFRRSIQKNMIYTCHRDKNCVINKVTRNRCQYCRLQKCFEVGMSKESVRYD belongs 0.046 ± 0.1; to YKPCFVCQDKSSGYHYGVSACEGCKGFFRRSIQKNMIYTCHRDKNCVINKVTRNRCQYCRLQKCFEVGMSKESVRTD, -0.15 ± 0.088.
With YKPCFVCQDKSSGYHYGVSACEGCKGFFRRSIQKNMIYTCHRDKNCVINKVTRNRCQYCRLQKCFEVGMSKESVRNR, the abundance fitness was -0.194 ± 0.053.
YKPCFVCQDKSSGYHYGVSACEGCKGFFRRSIQKNMIYTCHRDKNCVINKVTRNRCQYCRLQKCFEVGMSKESVRNV: the abundance fitness is -0.054 ± 0.057.
Consider YKPCFVCQDKSSGYHYGVSACEGCKGFFRRSIQKNMIYTCHRDKNCVINKVTRNRCQYCRLQKCFEVGMSKESVRNK, for which the abundance fitness was -0.082 ± 0.14.
As for YKPCFVCQDKSSGYHYGVSACEGCKGFFRRSIQKNMIYTCHRDKNCVINKVTRNRCQYCRLQKCFEVGMSKESVRNE, the abundance fitness was 0.125 ± 0.073.
The same measure, in the same setting: to YKPCFVCQDKSSGYHYGVSACEGCKGFFRRSIQKNMIYTCHRDKNCVINKVTRNRCQYCRLQKCFEVGMSKESVRNH belongs 0.087 ± 0.16; to YKPCFVCQDKSSGYHYGVSACEGCKGFFRRSIQKNMIYTCHRDKNCVINKVTRNRCQYCRLQKCFEVGMSKESVRNW, -0.347 ± 0.086; to YKPCFVCQDKSSGYHYGVSACEGCKGFFRRSIQKNMIYTCHRDKNCVINKVTRNRCQYCRLQKCFEVGMSKESVRNI, -0.06 ± 0.11.
As to YKPCFVCQDKSSGYHYGVSACEGCKGFFRRSIQKNMIYTCHRDKNCVINKVTRNRCQYCRLQKCFEVGMSKESVRNT, the abundance fitness is -0.348 ± 0.12.
In the case of YKPCFVCQDKSSGYHYGVSACEGCKGFFRRSIQKNMIYTCHRDKNCVINKVTRNRCQYCRLQKCFEVGMSKESVRNQ, the abundance fitness came to 0.066 ± 0.12.
For the variant YKPCFVCQDKSSGYHYGVSACEGCKGFFRRSIQKNMIYTCHRDKNCVINKVTRNRCQYCRLQKCFEVGMSKESVRNN, the abundance fitness is -0.333 ± 0.1.
Take YKPCFVCQDKSSGYHYGVSACEGCKGFFRRSIQKNMIYTCHRDKNCVINKVTRNRCQYCRLQKCFEVGMSKESVRNM: the abundance fitness was 0.007 ± 0.084.
Same read-out and setting: under YKPCFVCQDKSSGYHYGVSACEGCKGFFRRSIQKNMIYTCHRDKNCVINKVTRNRCQYCRLQKCFEVGMSKESVRNY stands 0.044 ± 0.1; under YKPCFVCQDKSSGYHYGVSACEGCKGFFRRSIQKNMIYTCHRDKNCVINKVTRNRCQYCRLQKCFEVGMSKESVRNP, 0.096 ± 0.073; under YKPCFVCQDKSSGYHYGVSACEGCKGFFRRSIQKNMIYTCHRDKNCVINKVTRNRCQYCRLQKCFEVGMSKESVRNS, -0.093 ± 0.065.
As to YKPCFVCQDKSSGYHYGVSACEGCKGFFRRSIQKNMIYTCHRDKNCVINKVTRNRCQYCRLQKCFEVGMSKESVRNA, the abundance fitness is -0.126 ± 0.063.
On to YKPCFVCQDKSSGYHYGVSACEGCKGFFRRSIQKNMIYTCHRDKNCVINKVTRNRCQYCRLQKCFEVGMSKESVRNF, for which the abundance fitness is -0.183 ± 0.32.
YKPCFVCQDKSSGYHYGVSACEGCKGFFRRSIQKNMIYTCHRDKNCVINKVTRNRCQYCRLQKCFEVGMSKESVRNL: the abundance fitness is -0.202 ± 0.073.
